This is an account of results in patent US8647868B2, “Compositions and methods for increasing production of recombinant gamma-carboxylated proteins” (Wake Forest University Health Sciences, priority 2005, dated 2014).

Data set [1] concerns blood clotting activity. Kind of data set: Blood clotting activity (APTT) of purified r-hFIX. The format is biochemical, human. Particulars: purified from medium of 200 nM siRNA SMART pool treated (r-hFIX+VKORC1) BHK cells. The procedure:
Warfarin sensitive VKOR activity was measured as described (19) by estimating the percent conversion of vitamin K1 2,3-epoxide (Vit.K>O) to vitamin K1. The vitamin and the epoxide were separated on a reversed phase C18 column in 100% methanol and quantified against external standards. VKOR activity was either triggered with 5 mM DTT or 0.32 mM reduced RNAse. Reduced bovine RNAse was prepared according to a modified method originally described by Rupp et al. (20). One hundred mg RNAse was dissolved in 500 μl of 0.2 M Tris-Acetate, 6 M guanidinium hydrochloride, pH 8.0. Seventy-two mg DTT was added and the solution was left at 37° C. for one hour. Then the pH was adjusted to 4.0 with acetic acid and DTT, Tris and guanidinium hydrochloride removed by gel filtration on a column of Sephadex G-25 equilibrated in 0.1 M acetic acid. Prior to chromatography, the column resin and the 0.1 M acetic acid were saturated with N2. The void volume fraction containing reduced RNAse was distributed into sealed 0.75 ml serum flasks filled with N2 which were stored at 4° C. until use. […] Blood clotting activities of purified r-hFIX and plasma hFIX were determined with the Activated Partial Thromboplastin Time (APPT) kit APTT-SP (liquid)-0020006300 from Instrumentation Laboratory, Lexington, Mass. […]

For data set [2], the system named is γ-carboxylase. Kind of data set: FLEEL γ-carboxylation in extracted rat liver microsomes triggered by reduced RNAse. The format is biochemical. Particulars: 40 μM vitamin K1 2,3-epoxide, no DTT. The procedure: Rat liver microsomes extracted of luminal and peripherally bound membrane proteins (see Experimental Procedures) were tested for FLEEL γ-carboxylation when the reaction was triggered by reduced RNAse (black bar) and reduced vitamin K1H2 (shaded bar). When reduced RNAse was used, the test system contained 40 μM vitamin K1 2,3-epoxide as the source of the γ-carboxylase cofactor. No DTT was present in the assays. Each bar represents the average activity of three parallel incubations. Standard deviation is shown on each bar.
For removal of microsomal luminal and peripherally bound membrane proteins, microsomes obtained from 4 g of rat liver were suspended in 8 ml of 100 mM Na2CO3, 1.2 M KCl, 0.025% deoxycholate, pH 11.5 with a Potter Elvehjelm glass homogenizer and centrifuged at 100,000×g for 45 min (14). […]
Warfarin sensitive VKOR activity was measured as described (19) by estimating the percent conversion of vitamin K1 2,3-epoxide (Vit.K>O) to vitamin K1. The vitamin and the epoxide were separated on a reversed phase C18 column in 100% methanol and quantified against external standards. […] Blood clotting activities of purified r-hFIX and plasma hFIX were determined with the Activated Partial Thromboplastin Time (APPT) kit APTT-SP (liquid)-0020006300 from Instrumentation Laboratory, Lexington, Mass. […]
On the technique in general: Liver microsomes are a subcellular fraction often used to study metabolism.

Consider “r-hFIX: functional recombinant human factor IX purified from medium of engineered BHK cells”, for which the “specific activity of functional r-hFIX” value in data set [1] was found to be 147 units/mg.

B1: reduced RNAse: bovine ribonuclease B reduced with DTT; used to trigger VKOR activity (protein, UniProt P61823 27-150, looked up)
Ribonuclease pancreatic: KETAAAKFERQHMDSSTSAASSSNYCNQMMKSRNLTKDRCKPVNTFVHESLADVQAVCSQKNVACKNGQTNCYQSYSTMSITDCRETGSSKYPNCAYKTTQANKHIIVACEGNPYVPVHFDASV
modifications: reduced with DTT
As to B1, the “FLEEL γ-carboxylation triggered by reduced RNAse” value in data set [2] is “to the same extent as chemically reduced vitamin K1H2”.
